Key:
[1] = target: AAV-amyloid-453-587 (AAV-2; human) (UniProt P03135)
[2] = target: purified αVβ3 integrin (CHEMICON) (UniProt P06756)

Substance	fold higher affinity against the I-587-insertion mutant (AAV-amyloid-587) [1]	fold increase of binding activity against RGD4C 453 [2]
anti-β-amyloid mAb 6E10 (CHEMICON) (antibody)	> 2 fold	
AAV2 RGD4C 453 A2 (from UniProt P03135 1-453; P03135 454-735) (other; other documents disagree on this pair)		50 fold
